# Laboratory results reported in PMC3282809 (Diabetes, 2012).
# B1: endogenous sorcin (MIN6 β-cells) (natural protein, mouse (endogenous in MIN6), UniProt Q6P069 1-198, looked up)
# chain: MAYPGHPGAGGGYYPGGYGGAPGGPAFPGQTQDPLYGYFAAVAGQDGQIDADELQRCLTQSGIAGGYKPFNLETCRLMVSMLDRDMSGTMGFNEFKELWAVLNGWRQHFISFDSDRSGTVDPQELQKALTTMGFRLSPQTVNSVAKRYSTSGKITFDDYIACCVKLRALTDSFRRRDSGQQGVVNFSYDDFIQCVMTV
# Target: the molecule itself
# Test: cross-linking + co-IP
protein,measurement,value
B1,stoichiometry N,2
